In the nanobody polyreactivity screen of Harvey et al. (2022):

Assay: yeast display, Sf9 membrane polyspecificity reagent, FACS + sequencing; frameworks hold sequencing errors
Procedure, shortened: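 Sorting gates, low and high (top ~1%), were placed on anti-HA fluorescence to track expression and on streptavidin fluorescence to track reagent binding. A clone's polyreactivity label is taken from the gate it came out of. The reagent was 10% biotinylated, detergent-solubilized Sf9 membrane, applied for 1 hour at 4 °C to galactose-induced yeast display cells.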

Sequence	polyreactivity (PSR sort gate)
QVQLVESGGGLVQAGGSLRLSCAASGSTFLLYAMGWYRPAPGKERELVATISWGGDGTYYADSVKGRFTISRDNAKNTVYLHLNSLKPEDSAVYYCAAYSYFGYYWDGQLPYRLPYDYWGQGTQVTLSS	low polyreactivity
QVQLVESGGGLVQAGGSLRLSCAASGSTFLNYALGWYRQAPGKERELVASISYSAGSTYYADSVKGRFTISRDNAKNTVYLQMNSLKPEDTAVYYCAARLARAGYWRRNYYYWGQGTQVTVSS	high polyreactivity
QVQLVESGGGLVQAGGSLRLSCAASGSTFLNYAMGWYRQAPGKERELVAAISGSTTRTYYADSVKGRFTISRDNAKNTVYLQMNSLKPEDTAVYYCARYSLYTGYRRYPLDYDYWGQGTQVTVSS	high polyreactivity
QVQLVESGGGLVQAGGSLRLSCAASGSTFLNYAMGWYRQAPGKERELVAAITGSGGRTYYADSVKGRFTISRDNAKNTVYLQMNSLKPEDTAVYYCAASATYDPHDYWGQGTQVTVSS	high polyreactivity
QVQLVESGGGLVQAGGSLRLSCAASGSTFLPNDMGWYRQAPGKERELVAAISWSDGSTYYADSVKGRFTISRDNAKNTVYLQMNSLKPEDTAVYYCNTVGFDYYYYEYDYWGQGTQVTVSS	low polyreactivity
QVQLVESGGGLVQAGGSLRLSCAASGSTFLPYAMGWYRQAPGKERELVAAIRWSVGSTYYADSVKGRFTISRDNAKNTVYLQMNSLKPEDTAVYYCAVTYGRGYEYWGQGTQVTVSS	high polyreactivity
QVQLVESGGGLVQAGGSLRLSCAASGSTFLRNAMGWYRQAPGKERQLVAAISRRGGSTYYADSVKGRFTISRDNAKNTVYLQMNSLKPEDTSVYYCAKDYRSPISGDYWGQGTQVTVSS	high polyreactivity
QVQLVESGGGLVQAGGSLRLSCAASGSTFLRYAMGWYREAPGTERELVAAISVSGGSTYYADSVKGRFTISRDNAKNTVYLQMNSLKPEYTAVYYCIAVTKFHRRYNYWGQGTQVTVSS	high polyreactivity
QVQLVESGGGLVQAGGSLRLSCAASGSTFLRYAMGWYRQAPGKERELVAAISSGTSTNYADSVKGRFTISRDNAKNTVYLQMNSLKPEDTAVYYCAAVYAWLFWYDSWGQGTQVTVSS	low polyreactivity
QVQLVESGGGLVQAGGSLRLSCAASGSTFLRYAMGWYRQAPGKERELVATISRSDDGTYYADSVKGRFTISRDNAKNTVYLQMNSLKPEDTAVYYCAARSWYLYYYWGQGTQVTVSS	low polyreactivity
QVQLVESGGGLVQAGGSLRLSCAASGSTFLRYAMGWYRQAPGKERELVATITSGGSTYADSVKGRFTISRDNAKNTVYLQMNSLKPEDTAVYYCAARANTKKPYYYWGQGTQVTVSS	high polyreactivity
QVQLVESGGGLVQAGGSLRLSCAASGSTFLRYDMGWYRQAPGKDRELVAAINWSGGGTSYADSVKGRFTISRDNAKNTVYLQMNSLKPEDTEVYYCAAYFRYSYYWSEYWGQGTQVTVSS	high polyreactivity
QVQLVESGGGLVQAGGSLRLSCAASGSTFLRYTMGWYRQAPGTERELVAAISPSAGSTYYADSVKGRFTISRDNAKNSVYLQMNSLTPEDTAVYYCAAKRGSVSRPDYGANDESWGQGTQVTVSS	high polyreactivity
QVQLVESGGGLVQAGGSLRLSCAASGSTFLSNAMGWYRPAPGKERELVAGIDYNDGSTYYADSVKGRFTISRDNAKNTVYLQMNSLKPEDTAVYYCAARWVFRRYVIGMDYWGQGTQVTVSS	low polyreactivity
QVQLVESGGGLVQAGGSLRLSCAASGSTFLSYAMGWYIQAPGKEREFVAAIPSIVGSTYYADSVKGRFTISRDNAKNTVYLQMNSLKPEDTAVYYCATDSYPGLNPDFDYWGQGTQVTVSS	low polyreactivity
QVQLVESGGGLVQAGGSLRLSCAASGSTFLSYAMGWYRQAPGKERELVARITSSGGNTYYADSVKGRFTISRDNAKNTVYLQMNSLKPEDTAVYYCAVSLEDQQYIFDYWGQGTQVTVSS	low polyreactivity
QVQLVESGGGLVQAGGSLRLSCAASGSTFLTNVMGWYRQAPGKEREFVAAITANGGRTYYADSVKGRFTISRDNAKKTVYLKMNSQKPEDTAVYYAVETAWSYNSIYWFDYWGQGTQVTVSS	high polyreactivity
QVQLVESGGGLVQAGGSLRLSCAASGSTFLTYAMGWYRQAPGKERELVASITSTGRTYADSVKGRFTISRDNAKNTVYLQMNSLKPEDTAVYYCNADVTAFRRSFLRKYYSYDSWGQGTQVTVSS	low polyreactivity
QVQLVESGGGLVQAGGSLRLSCAASGSTFLVNAKGWYRQAPGKEWEFVAAITGNAGSTYYADSVKGRFTISRDNEKYTVYLQMNSLKPEDTAVYYCAAALPGYDGDYWGQGTQVTVSS	low polyreactivity
QVQLVESGGGLVQAGGSLRLSCAASGSTFLVYALGWYRQAHGKEREFVAAISWSGGSTFYADSVKGRFTISRDNAKNTVYLQMNSLKPEDTAVYYCAARQAGYSGRKLYYWGQGTQVTVSS	low polyreactivity
QVQLVESGGGLVQAGGSLRLSCAASGSTFLVYARGWYRQAPGKERELVADITSRGGSTYYADSVKGRFTISRDNAKNTVYLQMNSLKPEDTAVYYCAALKRVVLFDYWGQGSQVTVSS	low polyreactivity
QVQLVESGGGLVQAGGSLRLSCAASGSTFLYNAMGWYRQAPGKERELVATISSGGGSTNYADSVKGRFTISRDNAKNTVYLQMNSLKPEDTAVYYCAVEGYDSYKDDYWGQGTQVTVSS	low polyreactivity

Sequence	polyreactivity (PSR sort gate)
QVQLVESGGGLVQAGGSLRLSCAASGSTFLYNAMRWYRQAPGKEREFVAAISGSGGTTYYADSVKGRFTISRDNAKNTFYLQMNSLKPEDTAVYYCAVSQSWYWYYASDYWGQGTQVTVSS	low polyreactivity
QVQLVESGGGLVQAGGSLRLSCAASGSTFLYYAMGWYRQAPGKERELVAAISWSGGSTYYADSVKGRFTISRDNAKNTVYLQMKSLKPEDTAVYYCAASSPWEQSNDQFYYWGQGTQVTVSS	low polyreactivity
QVQLVESGGGLVQAGGSLRLSCAASGSTFLYYAMGWYRQAPGKERELVATITDGGSTNYADSVKGRFTISRDNAKNTVYLQMNSLKPEDTAVYYCATDSYHYSYGYASLPEYDYWGQGTQVTVSS	low polyreactivity
QVQLVESGGGLVQAGGSLRLSCAASGSTFLYYAMGWYRQAPGKERELVAVISWSGVSTYYADSVKGRFTISRDNAKNTVYLQMNSLKPEVTAVYYCNTGNHYIRTYGYWGQGTQVTVSS	low polyreactivity
QVQLVESGGGLVQAGGSLRLSCAASGSTFNEYVMGWYRHAPGKERELVAAITGGGGRTYYADSVKGRFTISRDNAKNTVYLQMNSLKPEDTAVYYCAKRYLFVTYWGFFRYDYWGQGTQVTVSS	low polyreactivity
QVQLVESGGGLVQAGGSLRLSCAASGSTFNEYVMGWYRQAPGKERELVAAITGGGGRTYYADSVKGRFTISRDNAKITVYLQMNSQKPEDTAFYDCAKRYLYGTYWGFFRYDYWGQGTQVTVSS	low polyreactivity
QVQLVESGGGLVQAGGSLRLSCAASGSTFNFYAMGWYRQAPGKEREFVAAITSSGDSTYYADSVKGRFTISRDHAKTTVYLQMNSLKPEDTAVYYCAARLRWRYSYDYWGQGTQVTVSS	high polyreactivity
QVQLVESGGGLVQAGGSLRLSCAASGSTFNGNAMGWYRQAPGKERELVARISFDGTSTYYADSVKGRFTISRDNAKNTVYLQMNSLKPEDTAVDYCNVLFPRDHGFPGYGYWGQGTQVTVSS	low polyreactivity
QVQLVESGGGLVQAGGSLRLSCAASGSTFNGYAIGWYRQAPGKERELVAAITWSGDSTYYADSVKGRFTISRDNAKNTVYLQMNSLKPEDTAVYYCAADDVKWDYDYWGQGTQVTVSS	low polyreactivity
QVQLVESGGGLVQAGGSLRLSCAASGSTFNGYAMGWYRQAPGKERELVAAINWTGDSTYYADSVKGRFTISRDNAKNTVYLQMNSLKPEDTAVYYCAAIRRQKGLWDYYYWGQGTQVTVSS	low polyreactivity
QVQLVESGGGLVQAGGSLRLSCAASGSTFNGYTMGWYRQAPGKERELVAAISKSGGRTYYADSVKGRFTISRDNAKNTVYLQMNSLKPEDTAVYYCAAHFRALGIYYTYDYWGQGTQVTVSS	high polyreactivity
QVQLVESGGGLVQAGGSLRLSCAASGSTFNGYTMGWYRQAPGKERELVAAITWSGGRTYYADSVKGRFTISRDNAKNTVYLQMNSLKPEDTAVYYCAAKLRSRYDYWGQGTQVTVSS	high polyreactivity
QVQLVESGGGLVQAGGSLRLSCAASGSTFNGYVMGWYRQAPGKERELVAAISRSGGSTYYADSVKGRFTISRDNAKNTVYLQMNSLKPEDTAVYYCAVQRKSSKRAFRYGYWGQGTQVTVSS	high polyreactivity
QVQLVESGGGLVQAGGSLRLSCAASGSTFNKYTMGWYRQAPGKERELVASISSDGSTNYADSVKGRFTISRDNAKNTVYLQMNSLKPEDTAVYYCAADEGTGQASLSSNLYDYWGQGTQVTVSS	low polyreactivity
QVQLVESGGGLVQAGGSLRLSCAASGSTFNNNAMGWYRQAPGKERELVAAISYTGGSTYYADSVKGRFTISRDIAKYTVYLQMNSLKPEDSAVYYCARRQARKFYYWGQGTQVTVSS	high polyreactivity
QVQLVESGGGLVQAGGSLRLSCAASGSTFNNYAMGWYSQAPGKERELVAAITRGGGSTHYADSVKGRFTISRDNAKKTVYFQMNCRKPEDTAVYYCAVAGFDRGQYVRYYYWGQGTQVTVSS	low polyreactivity
QVQLVESGGGLVQAGGSLRLSCAASGSTFNRTPMGWYRQAPGKERELVAGISAGGRTYYTDSVKGRFTISRDNAKNTVYLLMNSLKPEDTAVYDCGTTSWWRCDLHTYLLTHYDYWGQGSQVTVSS	low polyreactivity
QVQLVESGGGLVQAGGSLRLSCAASGSTFNRYAMGWYRPAPGKDRELVAAISASGGSTYYADSVKGRFRISRDNAKNTVYLQMNSLKPEDTAVYYCATLHYVGQEHDYWGQGTQVTVSS	low polyreactivity
QVQLVESGGGLVQAGGSLRLSCAASGSTFNRYAMGWYRQAPGKERELVAAITSTGGTNYADSVKGRFTISLDNAKNTVYLQMYSLKPEDTAVYYCAKRWLRWRSNYWGQGTQVTVSS	high polyreactivity
QVQLVESGGGLVQAGGSLRLSCAASGSTFNSYTMGWSRQAPGEERELVAAITWSGGRTYYADSVKGRFTISRDNAKNTVYLQMNSLKPEATAVYYCAKDRVGEMYYWGQGTQVTVSS	low polyreactivity
QVQLVESGGGLVQAGGSLRLSCAASGSTFNSYVMGWYRQAPGQERELVAAITWSGGRTYYADSVKGRFTISRDNAKNTVYLQMNSLKPEDTAVYYCARKKRRGRDWGYDYWGQGTQVTVSS	high polyreactivity
